Source: doi:10.1101/651877 (bioRxiv, 2019)
Substitutions are numbered along the chain they refer to. Names and notes keep the numbering of the source.

B1: Mfn2^S378P with a C-terminal 3xFLAG tag (natural protein, UniProt Q80U63 1-757, looked up)
chain: MSLLFSRCNSIVTVKKDKRHMAEVNASPLKHFVTAKKKINGIFEQLGAYIQESASFLEDTHRNTELDPVTTEEQVLDVKGYLSKVRGISEVLARRHMKVAFFGRTSNGKSTVINAMLWDKVLPSGIGHTTNCFLRVGGTDGHEAFLLTEGSEEKKSVKTVNQLAHALHQDEQLHAGSMVSVMWPNSKCPLLKDDLVLMDSPGIDVTTELDSWIDKFCLDADVFVLVANSESTLMQTEKQFFHKVSERLSRPNIFILNNRWDASASEPEYMEEVRRQHMERCTSFLVDELGVVDRAQAGDRIFFVSAKEVLSARVQKAQGMPEGGGALAEGFQVRMFEFQNFERQFEECISQSAVKTKFEQHTVRAKQIAEAVRLIMDPLHIAAQEQRVYCLEMREERQDRLRFIDKQLELLAQDYKLRIKQITEEVERQVSTAMAEEIRRLSVLVDEYQMDFHPSPVVLKVYKNELHRHIEEGLGRNLSDRCSTAIASSLQTMQQDMIDGLKPLLPVSMRNQIDMLVPRQCFSLSYDLNCDKLCADFQEDIEFHFSLGWTMLVNRFLGPKNSRRALLGYSDQVQRPLPLTPANPSMPPLPQSSLTQEELMVSMVTGLASLTSRTSMGILVVGGVVWKAVGWRLIALSFGLYGLLYVYERLTWTTKAKERAFKRQFVEYASEKLQLIISYTGSNCSHQVQQELSGTFAHLCQQVDITRDNLEQEIAAMNKKVEALDSLQSRAKLLRNKAGWLDSELNMFTHQYLQPSR
B2: Mfn2^C390F with a C-terminal 3xFLAG tag (natural protein, UniProt Q80U63 1-757, looked up)
chain: B1 chain with P378S, C390F
B3: Mfn2^Q386P with a C-terminal 3xFLAG tag (natural protein, UniProt Q80U63 1-757, looked up)
chain: B1 chain with P378S, Q386P
B4: Mfn2^A383V with a C-terminal 3xFLAG tag (natural protein, UniProt Q80U63 1-757, looked up)
chain: B1 chain with P378S, A383V

Key:
[1] = molecular target: wild type Mfn2 with a C-terminal 3xFLAG tag (UniProt Q80U63); test: native gel or EMSA
native gel or EMSA = molecular target: the molecule itself; test: native gel or EMSA

Molecule | stoichiometry N [1] | stoichiometry N (native gel or EMSA)
wild type Mfn2 with a C-terminal 3xFLAG tag (from UniProt Q80U63 1-757) (natural protein) | 2 | 
B1 |  | 2
B2 |  | 2
B3 |  | 2
B4 |  | 2
